Data on 41 sequences can be found in the nanobody polyreactivity screen of Harvey et al. (2022).

A short description of the series: yeast display, Sf9 membrane polyspecificity reagent, FACS + sequencing; frameworks hold sequencing errors. In outline:
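Genes from sorted yeast were amplified by colony PCR, read by MiSeq 2 × 250 sequencing and filtered on CDR length. These cells carried a synthetic nanobody library in Saccharomyces cerevisiae BJ5465 and were sorted by FACS into low and high (top ~1%) gates on anti-HA and streptavidin fluorescence. Polyreactivity is labelled according to the gate of origin.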
With “QVQLQECGGGLVQAGGSLRLSCAASGNIFDADIMGWYSQAPGKERELVDSVTDGGSTNYADSVKGRFTISRDNAKNTVYLQMNSLKPEHTAVYYCAAIVYPDILTYFDYDYDYFYWGQGTQVTVGS”, the “polyreactivity (PSR sort gate)” value is given as “low polyreactivity”.

With “QVQLQEGGGGLVQAGGSLRLSCAASGYISYGDVMGWYRQAPGEERELVASIGLDATTNYADSVKGRFTISRDNAKITVYVQMNSLKPEDTAVYYCAADVGSGVLCGYWGQGTQMTVSS”, the “polyreactivity (PSR sort gate)” value is “high polyreactivity”.

For the sequence “QVQLQEIGGGLVQAGGSLRLSCAATGSIFVSVTMGWYRQAPGKERELVASIGRGSTTNHADSVKGRFTISRDNAKNIVYLLMNSLKPEDTAVYYCAALESYGKYHGYWGQGTQVTVSS”, the “polyreactivity (PSR sort gate)” value is reported as “low polyreactivity”.

Take “QVQLQERAAWCRRAGSLLLSCAASGNISDYYFMGWYRQAPAKERELVAAIAPGSNTYYADSVQGRFTISRDNAKKTVYLQMNSLKPEDTAVCFCAANSTQYTWFDDWGQGTQVPVSS”: the “polyreactivity (PSR sort gate)” value was “low polyreactivity”.

“QVQLQERGGGLVQAGGSLRLSCAASGYISHADEKGWYRQAPGKEHELVASISNGGCTNYADSEKGRFTISRDNAKNTLYLQMNSLKSEDTAVYYCAAWTGQVDIHYYWGQGTQVTVSS”: the “polyreactivity (PSR sort gate)” value is given as “low polyreactivity”.

For the sequence “QVQLQERGGGLVQAGGSLRLSCAASRIIYADGFMGLYRQAPGKEREFVATITGGGTSNYADSVKGLFTISRDNAKNTVYLQMNSQKPEDTAVYYCAVYFAWTIGFTYWGQGTQVTVSS”, the “polyreactivity (PSR sort gate)” value was “high polyreactivity”.

For “QVQLQERGGGLVQTGGSLSLSCEASGTISYSDSMCWYRQAPRKERELVAAIARGGITNYAYSVKGRFTISRDNAKNTVYLQMNSLKPEDTAVYYCADLSSRYAQFDYWGQGTQVTVSS”, the “polyreactivity (PSR sort gate)” value is reported as “low polyreactivity”.

As for “QVQLQESAAGLVQAGGGLRLSCPASGTISGPHVMGWYRQSPGKEREFVAAINVGANTYYADNVKGRFTISRDNAKNTVYLQMNSLKPEDTGVYYCAAVYYGDIGHEYWGQGTQVTVSC”, the “polyreactivity (PSR sort gate)” value is on record as “low polyreactivity”.

Take “QVQLQESAGALVQAGGSLRQSYAASGYIFPSLSMGRYRQAPGKEREFVAAIGRGSTNNYADSVKGRFTISRDNANNTAYQQMISLKPEDTAVYYCAAAASQLTRHLYWGQGTQVTVSS”: the “polyreactivity (PSR sort gate)” value is listed as “low polyreactivity”.

As to “QVQLQESAGGLVQAGDSQRMSCAASGNSFRFTDMGWYRQAPGKERELVAAINAGSTTYYADSVKGRFTISLDNAKNTVYLQMNSLKPEDTAVYYCAVYYLGSGTFGYWGQGAQVTVSS”, the “polyreactivity (PSR sort gate)” value is recorded as “high polyreactivity”.

Consider “QVQLQESAGGLVQAGGSLSLSCAASGSISRYYDMGWYRQAPGKEREFVAGISGGASTYYADSVKGRFTISRDNAKNTVYLQMNSLKPEDTAVYYCAADTGVYQYHSYWGQGTQVTVSS”, for which the “polyreactivity (PSR sort gate)” value is “low polyreactivity”.

“QVQLQESAGLVQAGGLRLSCAASGSVSYQEAMGWYRQAPGKERELVATMSFGANTNYADSVKVRFTISRDNAKNTVYLQMNSLKPEETAVYYCAAESLFDDYYGYWGQGTQVTVSS”: the “polyreactivity (PSR sort gate)” value was “low polyreactivity”.

Turning to “QVQLQESGADLEQAGGSLRLSFTASGTISDVRVMAWYRQAPGKERELVATISYVTITYYADSVKGRFTISRDSEKHRVSADDEPETGRYRGVLLRYYWGLGTQVTVSS”, the “polyreactivity (PSR sort gate)” value is reported as “low polyreactivity”.

As to “QVQLQESGAGLLQAGGCLSCTASGTIFGQGDMGWYRQAPGKERELLATINDGASTYYADSVKGRFTISRDKAKNTVYLKKNSLKPDDTAVDYFAVFTDITNYFGYWGQATQVTVSS”, the “polyreactivity (PSR sort gate)” value is “low polyreactivity”.

As to “QVQLQESGCGLVQEGGSLRPSCAASGSISEGVPMGWSRQAPGEERELVATTVMGATTNYADSVKGRFTISRGNANNTVYLQMISLKPDETAVYYCAAPLRYDKGFSFWGQGTQVTVSS”, the “polyreactivity (PSR sort gate)” value is “low polyreactivity”.

Turning to “QVQLQESGCRLVQAGGRLRMSCAASGNIIDADIMGWYRQAPGKERELVASITDGRRTNYADSVKGRYTNSRDSEKNTVYMQMNSLKPEDTAVYYCAAIAYPVVPTYFDYDSDYFHWGQGTQVTVSS”, the “polyreactivity (PSR sort gate)” value is “high polyreactivity”.

With “QVQLQESGDGLVQAVGSLRLSCAASGYISGYYNMGWYRQAPGKERELVAGIDAFGSSTNYADCVKGRFTISRDNAKNTVYLEMNSLKPEDTAVYYFAARPYGDRLFSYWGQGTQVTVSS”, the “polyreactivity (PSR sort gate)” value was “low polyreactivity”.

For the sequence “QVQLQESGGCLVLAGGSLRLSCAASGYIFDTCPMGWYRQAPGKEREFVASIDHGSNTYYADSVKGRFTISRDSAKNTVYLQMNSLKPEDTAVYYCAVRDDGSYTYGNWGQGTQVTVSS”, the “polyreactivity (PSR sort gate)” value is on record as “high polyreactivity”.

As for “QVQLQESGGGLEQAGGSLRLSCAASGYISDIGTMGWYRQAPGKEREFVATIVVGSTTNYADSVKGRFTISRDNAKNTVYLKPESGRYRGVLLRGWLLAVGKFTYWGQGTQETVSS”, the “polyreactivity (PSR sort gate)” value is listed as “low polyreactivity”.

On to “QVQLQESGGGLLQAGGTLRLSCAASGSIFGYSGMGWYRQAPGKERELVAGIDYGTITNYADSVKGRFTISRDNAKNTVYLQKYSLKPADTAVYYCATDIHSVHNHRDKHVYDYWGQGTQVTVSS”, for which the “polyreactivity (PSR sort gate)” value is “low polyreactivity”.

In the case of “QVQLQESGGGLMQAGVSQRLSCAASGSISYYSDMGWYRQAPRKEREFVAGIGYGTTTYYADSVKGRFTTSRDNAKNTVYLQMISMKPEDTAVYYCAAYQGNGYEFYYWGQGTQVTVRS”, the “polyreactivity (PSR sort gate)” value is given as “low polyreactivity”.

Regarding “QVQLQESGGGLVKAGGSLRLSCAASGNISNHNDMGWYRQAPGKEREFVAGITAGGITNYADSVKGRFTISRDNAKNTGYLQMNSLKPEDTAVYYCAAYPDYAKSYGYWGQGTQATVSS”, the “polyreactivity (PSR sort gate)” value was “low polyreactivity”.

For “QVQLQESGGGLVLAGGSLRLSCAASGNIFVYSYMGWYRQAPGKEREFVAAIGAGSTTYYADSVSRFTISRDNAKNTVYLQMNSLKPEDTAVYYCNAEITVNDDDYWGQGTQVTVSS”, the “polyreactivity (PSR sort gate)” value was “low polyreactivity”.

As for “QVQLQESGGGLVLAGGSLRLSCSASGNISFYGSMGWYRQAPGKESEFVATIDPGTNTNYADSVKDRFTISRDNAKNTVYLQMNSLKPEDTAVYYCAVEAGSDWPYRYWGQGTQVTVSS”, the “polyreactivity (PSR sort gate)” value is recorded as “low polyreactivity”.

“QVQLQESGGGLVLAGGSLRLSCSASGNNSVYGSMGWYRQAPGKEREFVATIDPGTNTNYADSVKDRFTISRDNAKNTVYLQMNSLKPEDTAVYYCAVEAGSDWPYRYWGQGTQVTVSS”: the “polyreactivity (PSR sort gate)” value is reported as “low polyreactivity”.

For the sequence “QVQLQESGGGLVQACGSLRLSCAASGYIFSHQYMGWYRQAPGKERELVASISPGATTNYADSVKGRFTISRDNAKNTVYLQMNSLKPEDTAVYYCARRYRPKYGYWGQGTQVTVSS”, the “polyreactivity (PSR sort gate)” value was “high polyreactivity”.

On to “QVQLQESGGGLVQACGSLRLSCAASGYIFSHQYMGWYRQAPGKERELVASISPGATTNYADSVKGRFTISRDNAKNTVYLQMNSLKPEDTAVYYYAVYQILDRRLSYWGQGTQVTVSC”, for which the “polyreactivity (PSR sort gate)” value was “high polyreactivity”.

Regarding “QVQLQESGGGLVQACGSQRLSCAASGSISEGQDKGWYRRAPGKEREFVAGIAPGATTYYADSEKGRFTISRDNAKNTVYLQMNSLKPEDTAVYFCAARSVTETDHDYWGQGTQVTVSS”, the “polyreactivity (PSR sort gate)” value is listed as “low polyreactivity”.

For “QVQLQESGGGLVQADGSLRLSCAASGSIIGYYYMGWYRQAPGKDRELVATINNCGITNYADSVKGLFTISRDNAKNTVYLQMNSLKPDDTAVYYCAADEYAQRDLGYWGQGTQVTVSN”, the “polyreactivity (PSR sort gate)” value is recorded as “low polyreactivity”.

As for “QVQLQESGGGLVQAGASLRLSCAASSNNSTLDVMGWYRQAPGKEREFVASIGSGGITNYADSVKGRFTISRDNAKNTVYLQMNSLKPEDTAVYYCAVLIQAYTDLIYWGQGTQVTLSS”, the “polyreactivity (PSR sort gate)” value was “high polyreactivity”.

Regarding “QVQLQESGGGLVQAGGCLSCTASGTIFGQGDMGWYRQAPGKERELVATINDGASTYYADSVKGRFTISRDKAKNTVYLQKNSLKPDDTAVYYCAVFKDITTYFGYLGQGTQVTVSS”, the “polyreactivity (PSR sort gate)” value was “low polyreactivity”.

As for “QVQLQESGGGLVQAGGDLRLICAASGNIFRDYIMGWYRQAPGKEREFVAGIDRGANTNYADSVIGRFTISRDNAKNSVFLQMNSRKPEVTAVYYCAVHNAIGPDFIYWGQGTQVTVSS”, the “polyreactivity (PSR sort gate)” value is “low polyreactivity”.

With “QVQLQESGGGLVQAGGILRLSCAACGNIFPSAVMGWYRQALGKEREFVATINSGSNTYYADSVKGRFTISRDNAKNTVYLQMNSLNLEDNAVYYCAAYFKLPAWHTYWGQGTQVTVSS”, the “polyreactivity (PSR sort gate)” value is “low polyreactivity”.

“QVQLQESGGGLVQAGGILRMSCAASGTIFSEANMGWYRQAPGKERELVATIGQGSTTNYADSVKGRFTISRDNAKNTVYLQMNSLKPEETAVYYCAVVTVDAVGFVYWCQGTQVTVSS”: the “polyreactivity (PSR sort gate)” value is reported as “low polyreactivity”.

As for “QVQLQESGGGLVQAGGNLRLSCAACGNIFPSAVMGWYRQALGKEREFVATINSGSNTYYADSVKGRFTISRDHAKNTVYLQTNSLKLEDTAVYYCAAYFKLPAWHTYWGQGTQVTVSS”, the “polyreactivity (PSR sort gate)” value is recorded as “low polyreactivity”.

Take “QVQLQESGGGLVQAGGRLRLSCAASGTISGPHVMGWYRQAPGKEREFFAAINVGANTYYADNVKGRYTISRDNAKNTVYLQMNSLKPEDTAVYYCAAVYYGDIGHEYWGQGTQVTVSC”: the “polyreactivity (PSR sort gate)” value is recorded as “low polyreactivity”.

“QVQLQESGGGLVQAGGRLSLSRAASGFISGTYCMGCYRQTPGQDREFVAGIGNGAITYYADSAKGCFTISRDNAKNAVYLQMNSLKQEETAVYYCAADGQWYYAPFRGGDYENDYWGQGTQVTVSS”: the “polyreactivity (PSR sort gate)” value is “low polyreactivity”.

As for “QVQLQESGGGLVQAGGSLCLSCAASGTIFFDGDMGWYRQAPGKEREFVAAINPGGSAYNADSVKGRLPLAAITHTVYLQMNSLKPEDTAVYYCSAKLFDVYGYYYWGQGTHVTVSS”, the “polyreactivity (PSR sort gate)” value is “low polyreactivity”.

In the case of “QVQLQESGGGLVQAGGSLLSCAASGTISWVDEMGWYRQAPGNERELVAGIAGGGNTNYADSVKGRFTISRDNAKNTVYLQMNSLDTAVYSCAVVGFGRGTHIYWGQGTQVTVSS”, the “polyreactivity (PSR sort gate)” value is given as “high polyreactivity”.

As for “QVQLQESGGGLVQAGGSLLSCAASGTISWVDEMGWYRQAPGNERELVAGIAGGGNTNYADSVKGRFTISRDNAKNTVYLQMNSLDTAVYYCAVVGFGLGTHIYWGQGTQVTVSS”, the “polyreactivity (PSR sort gate)” value is “high polyreactivity”.

“QVQLQESGGGLVQAGGSLLSCAASGTISYYREMGCYRQAPGKERELVAGIGVGTITYYADSVKGRFTISRDNAKNTVYLQLNSLKPEDNAVYYCAAHIDGNDSHAYWGQGTQVTVSS”: the “polyreactivity (PSR sort gate)” value is recorded as “low polyreactivity”.
